Data published in patent US20190062411A1 (AstraZeneca / MedImmune, published 2019).

Assays:
[1] = biological target: T1, biotinylated recombinant his-tagged MrkA, mixture of monomeric and oligomeric MrkA (Klebsiella pneumoniae, UniProt P12267 23-202, biotin-labeled (Pierce kit; sites not stated)); assay: BLI (Octet), biotinylated MrkA on streptavidin sensors, IgG in solution, 1:1 fit
T1 construct: also called biotinylated-MrkA; a mixture of monomeric and multimeric MrkA; not shown: his tag
T1 chain: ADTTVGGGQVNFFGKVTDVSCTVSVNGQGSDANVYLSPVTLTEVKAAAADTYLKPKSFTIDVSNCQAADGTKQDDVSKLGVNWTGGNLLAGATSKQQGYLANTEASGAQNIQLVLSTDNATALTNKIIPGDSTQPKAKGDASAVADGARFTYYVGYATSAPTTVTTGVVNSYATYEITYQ

[2] = biological target: T1, biotinylated recombinant his-tagged …; assay: ELISA, biotinylated MrkA captured by streptavidin (title: anti-MrkA IgG binding to bio-MrkA)
[3] = biological target: T1, biotinylated recombinant his-tagged …; assay: ELISA, MrkA protein coated directly onto the plate, not biotinylated (title: anti-MrkA IgG binding to MrkA)
[4] = biological target: T2, monomeric MrkA (purified, BLI) (Klebsiella pneumoniae, UniProt P12267 23-202); assay: BLI (Octet), Fab against monomeric MrkA
T2 construct: not shown: N terminal 6x his tag from pET28
T2 chain: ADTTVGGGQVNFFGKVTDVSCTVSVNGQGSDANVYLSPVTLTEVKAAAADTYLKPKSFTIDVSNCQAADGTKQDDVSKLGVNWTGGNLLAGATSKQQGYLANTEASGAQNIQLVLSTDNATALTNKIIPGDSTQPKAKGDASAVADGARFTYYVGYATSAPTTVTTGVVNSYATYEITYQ

[5] = biological target: T3, MrkA on the surface of live or whole K. pneumoniae bacteria (Klebsiella pneumoniae, UniProt P12267 23-202); assay: whole cell ELISA on K. pneumoniae strain 29011 (title: Kp29011 ELISA)
T3 construct: Target of whole-bacteria ELISA, FACS and confocal assays; The strain is named under assay in each row; On bacteria MrkA is assembled into fimbriae (oligomeric); also called K. pneumoniae MrkA; type III fimbriae major subunit MrkA
T3 chain: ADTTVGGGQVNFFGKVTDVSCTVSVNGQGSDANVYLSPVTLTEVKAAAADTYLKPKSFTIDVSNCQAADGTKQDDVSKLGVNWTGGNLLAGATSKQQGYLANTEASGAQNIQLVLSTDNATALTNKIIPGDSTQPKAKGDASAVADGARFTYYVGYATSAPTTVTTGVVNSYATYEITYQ
Experimental: Briefly, a single colony of K. pneumoniae was inoculated into 2xYT media until the culture reached log phase. Bacteria were coated onto 384-well plates (Nunc MaxiSorp) overnight at 4° C. […] After blocking with PBS supplemented with 4% BSA (PBS-B), the coated plates were incubated with anti-K. pneumoniae antibodies for 1 h. The plates were then washed with PBS-T (PBS+0.1% Tween 20) before HRP-conjugated secondary antibody was added for 1 h followed by washing and TMB (3, 3′, 5, 5′-Tetrametheylbenzidine) substrate addition. Color development was stopped by adding 0.1 N HCL, and the absorbance at 450 nm was measured by microplate reader (Molecular Devices). The data was plotted with Prism software.

[6] = biological target: T4, MrkA with a 40 amino acid N-terminal deletion (MrkA-N-dlt) (Klebsiella pneumoniae, UniProt P12267 41-202); assay: ELISA on plates coated directly with cleared lysate of E. coli expressing the His-tagged construct; y axis without a label
T4 construct: Lysate of E. coli coated on the ELISA plate; not shown: His tag added at the C terminus
T4 chain: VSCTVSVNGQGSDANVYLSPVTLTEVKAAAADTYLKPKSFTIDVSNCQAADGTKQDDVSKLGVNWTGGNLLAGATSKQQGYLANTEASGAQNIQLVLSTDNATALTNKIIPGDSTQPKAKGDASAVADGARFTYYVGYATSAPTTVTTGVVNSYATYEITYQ

[7] = biological target: T5, MrkA with both the N and C terminal deletions (MrkA-N/C-dlt) (Klebsiella pneumoniae, UniProt P12267 41-170); assay: as above
T5 construct: Lysate of E. coli coated on the ELISA plate; not shown: His tag added at the C terminus
T5 chain: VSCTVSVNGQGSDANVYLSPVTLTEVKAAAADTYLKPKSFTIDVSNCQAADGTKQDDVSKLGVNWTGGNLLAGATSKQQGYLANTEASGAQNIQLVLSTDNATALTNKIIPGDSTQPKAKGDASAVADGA

B1: anti-MrkA clone 6 (IgG1) (antibody, V domains shown)
VH: QVQLVQSGAEVRKPGASVTLSCRTSGYTFTSYAVHWVRQAPGQGLEWMGGVNGGNGNTRFSQKFQDRLMIVRDRSANTASMELRSLTSEDTAVYYCARADDCSGVGCHPWFDPWGQGTLVTVSS
VL: SVILTQPPSVSVSPGQTANITCSGDKLGDKYTSWYLQKPGQSPVLLIFQDTKRPSDIPERFSGSNSGNTATLTISGTQAVDEADYYCQAWDSDSGTATFGGGTKLTVL
notes: also called St4_C6; IgG clone 6
[1]
  Kd: 8.8 nM
  koff: 0.0002 s⁻¹
  kon: 22000 M⁻¹ s⁻¹
[2]
  EC50 (read off the curve): ~0.01 µg/mL
[3]
  EC50 (read off the curve): ~0.01 µg/mL

B2: Clone 1 Fab (Fab, V domains shown)
VH: QVQLVQSGAEVRKPGASVTVFCRTSGYIFTSYAVHWVRQAPGQGLEWMGGINGGNGNTRISQRFQDRLMITRDRSANTASMELRSLTSEDTAIYYCARADDCSGVGCHPWFDPWGRGTLVTVSS
VL: QSVLTQPPSVSVSPGHTASITCSGDKLGDKYVSWYQQKSGQSPVLVMYKDTKRPSGIPERFSGSNSGNTATLAISGTQAVDEADYFCQAWDRSIMIFGGGTKVTVL
notes: also called Clone 1 (Fab format)
[4]
  Kd: 2.76 nM
  koff: 0.00034 s⁻¹
  kon: 150000 M⁻¹ s⁻¹

B3: anti-MrkA clone 1 (IgG1) (antibody, V domains shown)
VH: QVQLVQSGAEVRKPGASVTVFCRTSGYIFTSYAVHWVRQAPGQGLEWMGGINGGNGNTRISQRFQDRLMITRDRSANTASMELRSLTSEDTAIYYCARADDCSGVGCHPWFDPWGRGTLVTVSS
VL: QSVLTQPPSVSVSPGHTASITCSGDKLGDKYVSWYQQKSGQSPVLVMYKDTKRPSGIPERFSGSNSGNTATLAISGTQAVDEADYFCQAWDRSIMIFGGGTKVTVL
notes: also called St1_C1; IgG clone 1
[1]
  Kd: 3.25 nM
  koff: 0.00017 s⁻¹
  kon: 53000 M⁻¹ s⁻¹
[2]
  EC50 (read off the curve): ~0.01 µg/mL
[3]
  EC50 (read off the curve): ~0.01 µg/mL

B4: anti-MrkA clone 4 (IgG1) (antibody, V domains shown)
VH: QLQLQESGPGLVKPSGTLSLTCAVSGDSIDNANWWSWVRQTPGKGLEWIGEIYHSGTTYYNPSLKSRVTISIDNSKNQFSLALTSVTAADTAVYYCARDRDITSRGTFDVWGRGTMVTVSS
VL: DIQMTQSPSTLSASIGDRVTITCRASEGIYHWLAWYQQKPGKAPKLLIYKASSLASGAPSRFSGSGSGTDFTLTISSLQPDDFATYYCQQYSNYPLTFGGGTKLEIK
notes: also called St2_C4; IgG clone 4
[1]
  Kd: 3.61 nM
  koff: 0.000146 s⁻¹
  kon: 40600 M⁻¹ s⁻¹
[2]
  EC50 (read off the curve): ~0.1 µg/mL
[3]
  EC50 (read off the curve): ~0.01 µg/mL

B5: anti-MrkA clone 5 (IgG1) (antibody, V domains shown)
VH: QVQLVQSGAEVKKPGASLKVSCKASGYTFTAYYMHWVRQAPGHGLEWMGWINPSSGGTNSAQKFQGRVTMTRDTSINTAYMELSRLTSDDTAVYYCARGTIGAAGNYWGQGTLVTVSS
VL: QSVLTQPPSASGTPGQRVTISCSGSRPNIGGNTVNWYQQLPGAAPKLLIYSNSQRPSGVPDRFSGSKYGTSASLAISGLQSDDEADYYCAAWDDSLTGPVFGGGTKLTIL
notes: also called St3_C5; IgG clone 5
[1]
  Kd: 3.54 nM
  koff: 9.2e-05 s⁻¹
  kon: 26000 M⁻¹ s⁻¹
[2]
  EC50 (read off the curve): ~0.2 µg/mL
[3]
  EC50 (read off the curve): ~0.01 µg/mL

B6: Clone 5 Fab (Fab, V domains shown)
VH: QVQLVQSGAEVKKPGASLKVSCKASGYTFTAYYMHWVRQAPGHGLEWMGWINPSSGGTNSAQKFQGRVTMTRDTSINTAYMELSRLTSDDTAVYYCARGTIGAAGNYWGQGTLVTVSS
VL: QSVLTQPPSASGTPGQRVTISCSGSRPNIGGNTVNWYQQLPGAAPKLLIYSNSQRPSGVPDRFSGSKYGTSASLAISGLQSDDEADYYCAAWDDSLTGPVFGGGTKLTIL
notes: also called Clone 5 (Fab format)
[4]
  Kd: 1520 nM
  koff: 0.0782 s⁻¹
  kon: 50000 M⁻¹ s⁻¹

B7: Kp16 (antibody, V domains shown)
VH: QVQLQQSGAEVKKPGASVKVSCKASGYALTTYYMHWVRQAPGQGLQWMGMINPSSGSTIYAQPFRGRVTLTRDTSSGTVFMDLSSLTSEDTAIYYCARGNYGSSFGYWGKGTMVTVSS
VL: not shown
[5]
  EC50 (read off the curve): ~0.08 µg/mL

B8: Kp3 (antibody, IgG1, V domains shown)
VH: QVQLQESGPGLVKPSETLSLTCTVSGGSMNSNSNTYYWGWIRQPPGKGLEWIGTIHSSGRTYYNPSLKSRVTISVDMSKNQFSLNLTSATAADTAVYYCARDLSGASLAPRRPFNYYYYNMDVWGRGTLVTVSS
VL: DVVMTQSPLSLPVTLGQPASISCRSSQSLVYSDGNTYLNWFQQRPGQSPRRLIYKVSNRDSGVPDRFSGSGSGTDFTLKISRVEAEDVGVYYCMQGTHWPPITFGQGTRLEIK
notes: constant regions are not; also called anti-MrkA mAb Kp3; MAb Kp3
[6]
  binding result: no binding
[7]
  binding result: no binding
[5]
  EC50 (read off the curve): ~0.08 µg/mL
[1]
  Kd: 0.15 nM
  koff: 1.2e-05 s⁻¹
  kon: 76000 M⁻¹ s⁻¹
[2]
  EC50 (read off the curve): ~0.01 µg/mL
[3]
  EC50 (read off the curve): ~0.01 µg/mL
